Measurements as given in patent US7250505 (FRED HUTCHINSON CANCER RESEARCH CENTER, dated 2007).
Non-standard residues stand in square brackets, D forms with d. No end group written: not given here. pY = N[C@@H](Cc1ccc(OP(=O)(O)O)cc1)C(=O)O

Columns and labels:
[1] = target: T1, APP protein (endogenous, full-length) (UniProt P12023 18-770, limits assumed); assay: GST pull-down from P19 cell extracts, Western blot
T1 construct: P19 is a mouse line by general knowledge; also called endogenous, full-length APP; amyloid precursor protein
Experimental: To test whether mDab1 would bind to the cytoplasmic tail of the APP protein, extracts of P19 cells were incubated with GST fusion proteins and subjected to immunoblot analysis as described above. […] Bound proteins were detected by SDS-PAGE followed by Western blotting.

[2] = target: T2, GST-mDab1 PTB domain fusion protein (mouse, UniProt O75553 29-197 (human entry)); assay: cellulose peptide array, radiolabeled GST-PTB
T2 construct: also called GST-PTB; not shown: glutathione S-transferase encoded by the pGEX-2T vector
T2 sequence: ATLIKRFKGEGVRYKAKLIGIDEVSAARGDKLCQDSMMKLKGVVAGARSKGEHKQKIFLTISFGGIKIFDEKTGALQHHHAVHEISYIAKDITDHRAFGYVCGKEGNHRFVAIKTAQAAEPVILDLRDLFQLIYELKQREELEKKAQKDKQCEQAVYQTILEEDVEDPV

[3] = target: LexA-Src(295R) fusion protein (UniProt P0A7C2 1-202; P00523 1-533); assay: yeast two-hybrid, beta-galactosidase filter assay
activated Src (Src527F) = target: T3, activated Src (Src527F) (UniProt P00523 1-533); assay: co-expression with Src527F in 293T cells, immunoprecipitation and immunoblot
T3 construct: the old residue (Tyr) is from general knowledge

B1: GST-mDab1 56E PTB domain fusion protein (other)
chain: ATLIKRFKGEGVRYKAKLIGIDEVSAAEGDKLCQDSMMKLKGVVAGARSKGEHKQKIFLTISFGGIKIFDEKTGALQHHHAVHEISYIAKDITDHRAFGYVCGKEGNHRFVAIKTAQAAEPVILDLRDLFQLIYELKQREELEKKAQKDKQCEQAVYQTILEEDVEDPV
notes: also called mDab56E-GST; mutant mDab1 PTB; not shown: GST of pGEX-2T and its linker
- binding result [1]: no binding

B2: TrkA peptide with the motif Ile Ile Glu Asn Pro Gln Tyr, phosphorylated (peptide)
peptide: IIENPQ[pY]
modifications: also: on cellulose array
notes: NPXpY peptide on a cellulose array
- binding result [2]: no binding

B3: TrkA peptide with the motif Ile Ile Glu Asn Pro Gln Tyr, not phosphorylated (peptide)
peptide: IIENPQY
notes: 15 to 17 residue peptide on a cellulose array; only the motif is printed; also called NGF receptor (TrkA) peptide
- binding result [2]: no binding

B4: mDab1 clone B3 fused to the VP16 transactivation domain (other)
chain: HHHAVHEISYIAKDITDHRAFGYVCGKEGNHRFVAIKTAQAAEPVILDLRDLFQLIYELKQREELEKKAQKDKQCEQAVYQTILEEDVEDPVYQYIVFEAGHEPIRDPETEENIYQVPTSQKKEGVYDVPKSQPVSAVTQLELFGDMSTPPDITSPPTPATPGDAFLPS
- binding result [3]: no binding

B5: mDab198/200F (mutant mDab555 with Phe in place of Tyr 198 and Tyr 200) (other)
chain: MSTETELQVAVKTSAKKDSRKKGQDRSEATLIKRFKGEGVRYKAKLIGIDEVSAARGDKLCQDSMMKLKGVVAGARSKGEHKQKIFLTISFGGIKIFDEKTGALQHHHAVHEISYIAKDITDHRAFGYVCGKEGNHRFVAIKTAQAAEPVILDLRDLFQLIYELKQREELEKKAQKDKQCEQAVYQTILEEDVEDPVFQFIVFEAGHEPIRDPETEENIYQVPTSQKKEGVYDVPKSQPVSAVTQLELFGDMSTPPDITSPPTPATPGDAFLPSSSQTLPGSADVFGSMSFGTAAVPSGYVAMGAVLPSFWGQQPLVQQQIAMGAQPPVAQVIPGAQPIAWGQPGLFPATQQAWPTVAGQFPPAAFMPTQTVMPLAAAMFQGPLTPLATVPGTNDSARSSPQSDKPRQKMGKESFKDFQMVQPPPVPSRKPDQPSLTCTSEAFSSYFNKVGVAQDTDDCDDFDISQLNLTPVTSTTPSTNSPPTPAPRQSSPSKSSASHVSDPTADDIFEEGFESPSKSEEQEAPDGSQASSTSDPFGEPSGEPSGDNISPQDGS
notes: Co-expressed with Src527F in 293T cells
- fold reduction of the in vivo association against mDab555 (activated Src (Src527F)): ~2 fold
